Laboratory results reported in the supplement of paper PMC9732359.
± gives the uncertainty stated by the source.

Test: protein stability index of a GFP-peptide fusion (yeast GPS) (PSI 1-4); higher = more stable; sorted into four equal gates, so the index is relative within each strain
Summary of the method: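 The protein stability index of a peptide was calculated by multiplying its read frequency in each gate by that gate's number and adding the products. The peptides were tiled 17-residue stretches of yeast proteins, fused downstream of GFP on a Cherry-expressing plasmid and carried in yeast as a pooled library. Mid-log cultures in leucine-free medium were sorted into four equal gates by GFP/Cherry ratio, and each gate's plasmids were PCR-amplified and Illumina-sequenced.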

Sequence | protein stability index (doa10∆) | protein stability index (pdr5∆) | protein stability index (san1∆) | protein stability index (ubr1∆)
PNVFDKDSYVRIANIEQ [YDL088C/ASM4] | 3 ± 0.093 | 3.09 ± 0.047 | 3.04 ± 0.07 | 3.22 ± 0.051
YINVSRGTDIDRINYTE [SRB5] |  |  |  | 3.02 ± 0.22
MSSDASTYRLEDVLSSF [SSN2] | 2.21 ± 0.073 | 2.38 ± 0.069 | 1.9 ± 0.1 | 2.56 ± 0.091
RKINLFYLYMLVQKFGG [SWI1] | 1.59 ± 0.099 | 1.23 ± 0.048 | 1.16 ± 0.18 | 1.08 ± 0.072
YLGEGPRMVRDVFRLAR [RPT3] | 2.79 ± 0.14 | 2.96 ± 0.053 | 2.8 ± 0.14 | 2.88 ± 0.09
TTPEKPEETPLEELAET [FAS2] | 3.28 ± 0.076 | 3.09 ± 0.074 | 3.28 ± 0.051 | 3.5 ± 0.051
TRNEQTTIQTEKVRPTP [MCD1] | 2.82 ± 0.04 | 2.99 ± 0.046 | 2.88 ± 0.036 | 3 ± 0.031
KMLSCAGADRLQQGMRG [RPL10] | 3.43 ± 0.12 | 3.28 ± 0.13 | 2.98 ± 0.11 | 3.32 ± 0.085
NVVNYLSINKNFINQED [RPC17] | 1.39 ± 0.071 | 1.83 ± 0.061 | 1.55 ± 0.079 | 1.61 ± 0.045
IALEGYRLDIIESALKS [RPN2] |  | 1.49 ± 0.15 |  | 1.25 ± 0.15
ELESMLEDLKNTKEIAV [RRP6] | 2.18 ± 0.08 | 2.27 ± 0.051 | 2.33 ± 0.063 | 2.61 ± 0.044
NFHNSKKRMNSNQERCH [RRI1] | 2.51 ± 0.062 | 2.51 ± 0.057 | 2.83 ± 0.071 | 2.99 ± 0.07
IPATIFDKVIYHLHPTF [TAF14] | 2.61 ± 0.066 | 2.8 ± 0.068 | 2.55 ± 0.062 | 2.78 ± 0.057
VLADALNAINNAEKTGK [RPS22A] | 2.92 ± 0.056 | 3.27 ± 0.059 | 2.67 ± 0.06 | 2.97 ± 0.049
PGPRLLYENIASSPIIL [RPN10] | 2.1 ± 0.03 | 2.29 ± 0.038 | 2.2 ± 0.057 | 2.12 ± 0.028
AQANNNNNGLPQNGNIN [GAL11] | 3.04 ± 0.049 | 3.11 ± 0.049 | 3.05 ± 0.056 | 2.98 ± 0.038
SDGQSRVKDIHLRKLLD [RET1] | 2.88 ± 0.061 | 2.98 ± 0.067 | 3.11 ± 0.068 | 2.99 ± 0.043
RAGQRTRFKAVVVVGDS [RPS2] | 2.07 ± 0.056 | 2.2 ± 0.063 | 2.28 ± 0.088 | 2.29 ± 0.048
NNDLESVSMLLQYYILE [RRI2] | 2.94 ± 0.047 | 3.16 ± 0.049 | 3.16 ± 0.034 | 3.122 ± 0.031
KAERVEDQKVVDKALIA [RPL6A] | 3.25 ± 0.057 | 3.5 ± 0.06 | 3.4 ± 0.044 | 3.5 ± 0.05
KLRDHEPDLESQISKAE [SMC4] | 2.07 ± 0.13 | 1.31 ± 0.21 | 3.16 ± 0.16 | 
KDGEIMLWNLAAKKAMY [ASC1] | 2.55 ± 0.071 | 1.87 ± 0.05 | 2.26 ± 0.067 | 1.76 ± 0.097
AITHMIDALGTEFSKND [SCL1] | 2.47 ± 0.069 | 2.54 ± 0.044 | 2.7 ± 0.08 | 2.61 ± 0.031
LQYANNAVISHANAAAV [SIN4] | 1.83 ± 0.047 | 1.99 ± 0.041 | 1.91 ± 0.049 | 1.92 ± 0.03
LIKTLSTLHMLGYTHIA [RPP1] | 2.49 ± 0.081 | 2.65 ± 0.087 | 2.62 ± 0.099 | 2.65 ± 0.071

Sequence | protein stability index (doa10∆) | protein stability index (pdr5∆) | protein stability index (san1∆) | protein stability index (ubr1∆)
PVLKKKAAFLGSEVRLR [COR1] | 2.91 ± 0.074 | 3.16 ± 0.071 | 2.97 ± 0.07 | 3.3 ± 0.078
KRRFGELMDRTGLKLYS [RPP1] | 2.21 ± 0.18 | 2.98 ± 0.12 | 2.23 ± 0.11 | 2.45 ± 0.11
KIALREYINNCKKNTKK [POP4] |  | 2.86 ± 0.27 | 3.01 ± 0.087 | 2.89 ± 0.15
KPLADLRPLFTRYELYI [YLR335W/NUP2] | 2.4 ± 0.048 | 2.04 ± 0.04 | 2.09 ± 0.073 | 2.02 ± 0.029
CIIAVSCTLLERGHPKD [POP1] | 1.46 ± 0.022 | 1.52 ± 0.029 | 1.81 ± 0.036 | 1.96 ± 0.027
KMATDNKINSRNSWNFA [BRN1] |  | 2.94 ± 0.12 |  | 1.92 ± 0.12
VREYEQPDANKKKRSRT [ISW2] | 3.13 ± 0.14 | 3.31 ± 0.12 | 3.25 ± 0.13 | 3.29 ± 0.11
SNDERIVKRLYEYGAVS [BRR2] | 2.71 ± 0.076 | 2.97 ± 0.07 | 3.14 ± 0.056 | 3.14 ± 0.049
SGEPIIAATQDFITGSY [RPO31] | 3.36 ± 0.1 | 3.3 ± 0.095 | 3.13 ± 0.12 | 3.18 ± 0.039
APGKVELAINLIRFDES [SMC2] | 3.12 ± 0.16 | 3.11 ± 0.11 | 3.52 ± 0.12 | 2.83 ± 0.08
HNMLNLLIHRKGLTYLH [PRP8] | 1.33 ± 0.08 | 1.45 ± 0.038 | 1.6 ± 0.1 | 1.66 ± 0.049
RLERRINLTKVTQKDIC [CSI1] | 2.88 ± 0.079 | 2.82 ± 0.13 | 3.18 ± 0.065 | 3.29 ± 0.12
VNTMGTGGQTIDNGTGR [MED6] | 3.27 ± 0.14 | 3.06 ± 0.24 | 3.19 ± 0.077 | 3.19 ± 0.073
RLYVKGKHLSYQRSKRV [RPL33A] | 2.1 ± 0.063 | 1.75 ± 0.046 | 1.67 ± 0.094 | 2.46 ± 0.065
AKTFGASVRIFLYPSNI [RPL33A] | 2.38 ± 0.057 | 2.65 ± 0.056 | 2.5 ± 0.066 | 2.59 ± 0.054
RNSNPENTVGLISGAGA [RPN10] | 2.93 ± 0.11 | 2.81 ± 0.074 | 2.6 ± 0.067 | 2.06 ± 0.069
MDVDSVKTTLVSLTQLR [RPC82] | 2.57 ± 0.1 | 1.81 ± 0.074 | 2.08 ± 0.12 | 1.5 ± 0.093
REQHIDTICQSIQEQIQ [SNF5] | 3.12 ± 0.068 | 3.25 ± 0.11 | 3.25 ± 0.053 | 3.3 ± 0.068
QEGKISSVYRLKFAVQV [RPL26A] | 3.09 ± 0.089 | 3.25 ± 0.11 | 3.1 ± 0.095 | 3.76 ± 0.12
VEIAYHKCDELITLFNK [RPO31] | 3.16 ± 0.19 | 3.01 ± 0.087 | 2.99 ± 0.078 | 2.96 ± 0.1
TKWGLINYQVDSKLLPK [SWI3] | 2.8 ± 0.11 | 2.41 ± 0.12 | 1.92 ± 0.15 | 2.55 ± 0.077
KFPDMGSLWVEFCDEPS [RPB5] | 2.75 ± 0.044 | 2.89 ± 0.06 | 2.9 ± 0.066 | 2.96 ± 0.045
DKPYLLRIVTHLAICLD [YDL116W/NUP84] | 1.33 ± 0.078 | 1.28 ± 0.08 | 1.32 ± 0.13 | 1.58 ± 0.058
LYDALEPSDLRSWTLTS [YGL100W/SEH1] | 2.82 ± 0.048 | 2.79 ± 0.046 | 2.78 ± 0.038 | 3.03 ± 0.049
PPQLANQQQPPQDILSK [SNF11] | 2.26 ± 0.055 | 2.87 ± 0.069 | 2.41 ± 0.065 | 2.69 ± 0.052
